# Source: publication PMC11180644, “Discovery, characterization and mechanism of a Microbacterium esterase for key d-biotin chiral intermediate synthesis” (Bioresources and Bioprocessing, 2024)
# B1: EstSIT01 (Microbacterium aurantiacum) (protein)
# chain: MTLFDGITSRIVDTDRLTVNILERAADDPQTPPDRTVVFVHGNVSSALFWQEIMQDLPSDLRAIAVDLRGFGGSEHAPVDATRGVRDFSDDLHATLEALDIPVAHLVGWSMGGGVVMQYALDHPVLSLTLQSPVSPYGFGGTRRDGSRLTDDDAGCGGGGANPDFIQRLIDHDTSDDAQTSPRSVFRAGYVASDYTTDHEDVWVESMLTTSTADGNYPGDAVPSDNWPGFAAGRHGVLNTMAPQYFDVSGIVDLAEKPPILWIHGTADAIVSDASFYDLNYLGQLGIVPGWPGEDVAPAQEMVSQTRDVLGRYAAGGGTVTEVAVEGAGHSAHLERPAVFRHALLEIIGYVGAAADPAPPTEAIIIRSAD
# notes: C-terminal 6xHis tag, pET21a, E. coli BL21(DE3), Ni-NTA purified; catalytic triad Ser110-His330-Asp268
# Substrate: COC(=O)[C@@H]1[C@H](C(=O)OC)N(Cc2ccccc2)C(=O)N1Cc1ccccc1
# Experiment: HPLC of released monomethyl ester; Michaelis-Menten fit (GraphPad Prism)
# Assay type: biochemical, Microbacterium aurantiacum
# Conditions: 0.2 mol/L PBS pH 8.0, 30 °C, 10 min, DMSO as substrate solvent, 0.1-12 mmol/L diester
# Excerpt: HPLC of released monomethyl ester; Michaelis-Menten fit (GraphPad Prism) on […]01 | the Km value
protein,measurement,value
B1,Km,147 µM
same,kcat,5.808 s⁻¹
